From patent publication US7569341
“And” between values parts separate entries of the source, which are not always exact repeats. Equal entries are not always repeated. One block for each substance: values may come before it.

Assays:
[1] = target: mouse IgG whole molecules (Pierce) (mouse); experiment: sandwich ELISA; capture CB on C-DNA well; IgG mixture; detected with aM-AP
[2] = target: mouse IgG whole molecules (Pierce) (mouse); experiment: sandwich ELISA; biotinylated antibody directly on streptavidin well; IgG mixture; detected with aM-AP
[3] = target: mouse IgG whole molecules (Pierce) (mouse); experiment: sandwich ELISA; capture BB on B-DNA well; IgG mixture; detected with aM-AP
[4] = target: dog IgG whole molecules (reagent grade, Sigma) (dog); experiment: sandwich ELISA; capture CB on C-DNA well; IgG mixture; detected with aD-AP
[5] = target: bovine IgG whole molecules (reagent grade, Sigma) (bovine); experiment: sandwich ELISA; capture AB on A-DNA well; IgG mixture; detected with aB-AP
[6] = target: mouse IgG whole molecules (Pierce) (mouse); experiment: sandwich ELISA; capture AB on A-DNA well; IgG mixture; detected with aM-AP
[7] = target: dog IgG whole molecules (reagent grade, Sigma) (dog); experiment: sandwich ELISA; capture BB on B-DNA well; IgG mixture; detected with aD-AP
[8] = target: bovine IgG whole molecules (reagent grade, Sigma) (bovine); experiment: sandwich ELISA; capture BB on B-DNA well; IgG mixture; detected with aB-AP
[9] = target: bovine IgG whole molecules (reagent grade, Sigma) (bovine); experiment: sandwich ELISA; capture CB on C-DNA well; IgG mixture; detected with aB-AP
[10] = target: dog IgG whole molecules (reagent grade, Sigma) (dog); experiment: sandwich ELISA; capture AB on A-DNA well; IgG mixture; detected with aD-AP
[11] = target: bovine IgG whole molecules (reagent grade, Sigma) (bovine); experiment: sandwich ELISA; biotinylated antibody directly on streptavidin well; IgG mixture; detected with aB-AP
[12] = target: mouse IgG whole molecules (Pierce) (mouse); experiment: sandwich ELISA; capture BD on B-DNA well; IgG mixture; detected with aM-AP
[13] = target: mouse IgG whole molecules (Pierce) (mouse); experiment: sandwich ELISA; capture AD on A-DNA well; IgG mixture; detected with aM-AP
[14] = target: bovine IgG whole molecules (reagent grade, Sigma) (bovine); experiment: sandwich ELISA; capture AD on A-DNA well; IgG mixture; detected with aB-AP
[15] = target: bovine IgG whole molecules (reagent grade, Sigma) (bovine); experiment: sandwich ELISA; capture CD on C-DNA well; IgG mixture; detected with aB-AP
[16] = target: dog IgG whole molecules (reagent grade, Sigma) (dog); experiment: sandwich ELISA; capture AD on A-DNA well; IgG mixture; detected with aD-AP
[17] = target: bovine IgG whole molecules (reagent grade, Sigma) (bovine); experiment: sandwich ELISA; capture BD on B-DNA well; IgG mixture; detected with aB-AP
[18] = target: dog IgG whole molecules (reagent grade, Sigma) (dog); experiment: sandwich ELISA; biotinylated antibody directly on streptavidin well; IgG mixture; detected with aD-AP
[19] = target: dog IgG whole molecules (reagent grade, Sigma) (dog); experiment: sandwich ELISA; capture CD on C-DNA well; IgG mixture; detected with aD-AP
[20] = target: dog IgG whole molecules (reagent grade, Sigma) (dog); experiment: sandwich ELISA; capture BD on B-DNA well; IgG mixture; detected with aD-AP
[21] = target: mouse IgG whole molecules (Pierce) (mouse); experiment: sandwich ELISA; capture CD on C-DNA well; IgG mixture; detected with aM-AP
[22] = target: mouse IgG whole molecules (Pierce) (mouse); experiment: sandwich ELISA; capture BM on B-DNA well; IgG mixture; detected with aM-AP
[23] = target: mouse IgG whole molecules (Pierce) (mouse); experiment: ELISA on mouse IgG-coated plate, A405, against controls A and B
[24] = target: bovine IgG whole molecules (reagent grade, Sigma) (bovine); experiment: sandwich ELISA; capture CM on C-DNA well; IgG mixture; detected with aB-AP
[25] = target: dog IgG whole molecules (reagent grade, Sigma) (dog); experiment: sandwich ELISA; capture AM on A-DNA well; IgG mixture; detected with aD-AP
[26] = target: mouse IgG whole molecules (Pierce) (mouse); experiment: sandwich ELISA; capture AM on A-DNA well; IgG mixture; detected with aM-AP
[27] = target: dog IgG whole molecules (reagent grade, Sigma) (dog); experiment: sandwich ELISA; capture CM on C-DNA well; IgG mixture; detected with aD-AP
[28] = target: mouse IgG whole molecules (Pierce) (mouse); experiment: sandwich ELISA; capture CM on C-DNA well; IgG mixture; detected with aM-AP
[29] = target: bovine IgG whole molecules (reagent grade, Sigma) (bovine); experiment: sandwich ELISA; capture AM on A-DNA well; IgG mixture; detected with aB-AP
[30] = target: dog IgG whole molecules (reagent grade, Sigma) (dog); experiment: sandwich ELISA; capture BM on B-DNA well; IgG mixture; detected with aD-AP
[31] = target: bovine IgG whole molecules (reagent grade, Sigma) (bovine); experiment: sandwich ELISA; capture BM on B-DNA well; IgG mixture; detected with aB-AP

absorbance reading (405 nm) [1]: 24
absorbance reading (405 nm) [2]: 50 and 64 and 61
absorbance reading (405 nm) [3]: 153
absorbance reading (405 nm) [4]: 9
absorbance reading (405 nm) [5]: 729
absorbance reading (405 nm) [6]: 146
absorbance reading (405 nm) [7]: 9
absorbance reading (405 nm) [8]: 591
absorbance reading (405 nm) [9]: 90
absorbance reading (405 nm) [10]: 20
absorbance reading (405 nm) [11]: 279 and 319 and 265
Substance: biotinylated rabbit anti-bovine IgG (#B-7140), polyclonal rabbit IgG (antibody)

absorbance reading (405 nm) [12]: 31
absorbance reading (405 nm) [13]: 73
absorbance reading (405 nm) [2]: 20 and 24 and 35
absorbance reading (405 nm) [14]: 84
absorbance reading (405 nm) [15]: 23
absorbance reading (405 nm) [16]: 673
absorbance reading (405 nm) [17]: 57
absorbance reading (405 nm) [18]: 334 and 413 and 941
absorbance reading (405 nm) [19]: 102
absorbance reading (405 nm) [20]: 481
absorbance reading (405 nm) [11]: 28 and 26 and 75
absorbance reading (405 nm) [21]: 26
Substance: biotinylated rabbit anti-dog IgG (#B-7640), polyclonal rabbit IgG (antibody)

absorbance reading (405 nm) [22]: 346
signal-to-noise ratio [23]: 60
absorbance reading (405 nm) [24]: 8
absorbance reading (405 nm) [25]: 8
absorbance reading (405 nm) [2]: 177 and 189 and 186
absorbance reading (405 nm) [26]: 533
absorbance reading (405 nm) [27]: 5
absorbance reading (405 nm) [28]: 49
absorbance reading (405 nm) [29]: 45
absorbance reading (405 nm) [30]: 4
absorbance reading (405 nm) [31]: 30
absorbance reading (405 nm) [11]: 15 and 31 and 19
Substance: biotinylated rabbit anti-mouse IgG (#B-8520), polyclonal rabbit IgG (antibody)
